The source of these data is US20160046573A1, “IDENTIFYING PATIENT RESPONSE TO S1P RECEPTOR MODULATOR ADMINISTRATION” (Novartis AG, priority 2013, published 2016).

Data set [1] is described as follows: Inhibition of [14C]BAF312 biotransformation in HLM by CYP-specific chemical inhibitors. The following applies: for Rate / Relative activity: 5 μM BAF312, HLM 0.1 mg/mL, 90 min. How it is done: The incubations were carried out in 0.1 M phosphate buffer, pH 7.4. Typical incubations of 200 (or 400) μL total volume were prepared as follows: 10 μL of 100 mM MgCl2 (5 mM), stock solutions of CHAPS, substrate and microsomes or recombinant human cytochrome P450 isoenzymes were added to appropriate volume of the buffer. […] Reaction was started by addition of 20 μL of a fresh 10 mM NADPH (1 mM). The final concentrations are given in parentheses. The final concentrations of organic solvent were maximally 0.5% (v/v). For some experiments, higher incubation volumes were prepared by keeping proportionally the quantity of all solutions. The samples were incubated at 37° C. in a thermomixer (Eppendorf 5355) with agitation at 500 rpm.
The incubation reactions were stopped and the protein was precipitated by addition of an equal volume of ice-cold 0.5% formic acid in acetonitrile. After 30 min at −80° C. (or overnight at −20° C.) the samples were centrifuged at 30,000×g for 15 min. The supernatant was withdrawn. Aliquots were analyzed by LSC (20 μL) and the supernatant was diluted appropriately with water to obtain a final solution containing less than 30% of acetonitrile. For samples with lower concentration in substrate, supernatants were evaporated to about the half of initial volumes under reduced pressure at 40° C. with SpeedVac® concentrator (model AES 2010, Savant Inc., Holbrook, N.Y., USA) then mixed with 0.5% formic acid in acetonitrile to obtain a final solution containing less 30% of acetonitrile. Sample solutions were analyzed by HPLC combined with radiodetection. (for HLPC method, see Section 1.6)
The biotransformation of BAF312 was tested at 5 μM substrate concentration in the presence of the 8 individual chemical inhibitors.

Substrate in data set [2]: CCc1cc(/C(C)=N/OCc2ccc(C3CCCCC3)c(C(F)(F)F)c2)ccc1CN1CC(C(=O)O)C1
Kind of data set: Enzyme mapping: metabolite formation by recombinant P450 isoenzyme. The data set is classed as in vitro ADME, human. The following applies: estimated by solving the Michaelis-Menten equation for the 2 substrate concentrations, pH 7.4. How it is done:
(§1) Microsomes prepared from baculovirus infected insect cells (BTI-TN-5B1-4) expressing the following human P450 enzymes and the insect cell membrane preparations (negative control) were obtained from BD Biosciences (Woburn, Mass., USA).
(§2) The final concentrations are given in parentheses.
(§3) After 30 min at −80° C. […] The supernatant was withdrawn. […] Sample solutions were analyzed by HPLC combined with radiodetection. (for HLPC method, see Section 1.6)
Mean specific CYP enzyme concentrations in human liver microsomes were obtained from literature values (Rowland Yeo K, Rostami-Hodjegan A and Trucker GT (2004)] Abundance of cytochromes P450 in human liver: a meta-analysis. Br. J. Clinical Pharmacology; 57:687-688). For some recombinant human CYPs, the enzyme kinetic parameters were estimated by calculation assuming Michaelis-Menten type behavior for the two concentrations used, solving a linear equation system for 2 linear equations with 2 variables: […]
Microsomes prepared from baculovirus infected insect cells (BTI-TN-5B1-4) expressing one single human cytochrome P450 isoenzyme were used to assess the involvement of specific enzymes in the biotransformation of [14C]BAF312. Incubation experiments with a panel of 21 recombinant human CYPs (CYP1A1, 1A2, 1B1, 2A6, 2B6, 2C8, 2C9*1, 2C18, 2C19, 2D6*1, 2E1, 2J2, 3A4, 3A5, 3A7, 4A11, 4F2, 4F3A, 4F3B, 4F12 and CYP19) were conducted under similar conditions for each isoenzyme with 10 and 40 μM BAF312 incubation and 30 pmol CYP/mL for 30 min. […] Lower metabolism activities were also observed in incubation with CYP3A4, while some trace metabolism was detected with other CYP isoenzymes (2B6, 2C8, 2C19, 2J2, 3A5, 1A1).

Substrate in data set [3]: CCc1cc(/C(C)=N/OCc2ccc(C3CCCCC3)c(C(F)(F)F)c2)ccc1CN1CC(C(=O)O)C1
Put plainly: Enzyme kinetics of [14C]BAF312 metabolism by rhCYP2C9. The class given is in vitro ADME, human. Particulars: other: CYP 2C9; obtained from kinetic experiments; pH 7.4. How it is done:
The concentration-dependent kinetics of [^14C]BAF312 biotransformation (total metabolites) in rhCYP2C9 (50 pmol/mL) after 60 minutes incubation was plotted as Michaelis-Menten plot (upper) and as Eadie-Hofstee plot (V vs. V/S, bottom) fitted with substrate inhibition model using substrate concentrations 5-300 μM.
as §1, §2, §3
Enzyme kinetic parameters Vmax and Km of the biotransformation by HLM and major metabolizing enzymes were calculated by using SigmaPlot Version 8.0 (S1), Enzyme Kinetics module Version 1.1 software (SPSS Science Inc., Chicago, Ill., USA). The intrinsic clearance was calculated by the equation: CLint=Vmax/Km.
Enzyme kinetics parameters of the isoenzymes CYP2C9 and CYP3A4 for BAF312 metabolism were determined by incubating different concentrations of [^14C]BAF312 with the isoenzyme.

Turning to `N[C@@H]1C[C@H]1c1ccccc1` (racemic) [Tranylcypromine], the “inhibition of BAF312 metabolism” value in data set [1] (2 μM and 10 μM inhibitor, 5 μM substrate concentration, HLM) is 11-29%. In data set [1] (2 μM inhibitor), the Rate is given as 15.3 pmol/min/mg and the Relative activity came to 89%. Also, in data set [1] (10 μM inhibitor), the Rate came to 12.2 pmol/min/mg and the Relative activity stood at 71%.
Turning to `S=P(N1CC1)(N1CC1)N1CC1` [Triethylenethiophosphoramide], in data set [1] (5 μM inhibitor), the Rate worked out at 18.3 pmol/min/mg and the Relative activity was determined as 106%. In data set [1] (20 μM inhibitor), the Rate is reported as 18.8 pmol/min/mg and the Relative activity is recorded as 109%.

B1: CYP1A1 (Homo sapiens) (protein)
chain: MLFPISMSATEFLLASVIFCLVFWVIRASRPQVPKGLKNPPGPWGWPLIGHMLTLGKNPHLALSRMSQQYGDVLQIRIGSTPVVVLSGLDTIRQALVRQGDDFKGRPDLYTFTLISNGQSMSFSPDSGPVWAARRRLAQNGLKSFSIASDPASSTSCYLEEHVSKEAEVLISTLQELMAGPGHFNPYRYVVVSVTNVICAICFGRRYDHNHQELLSLVNLNNNFGEVVGSGNPADFIPILRYLPNPSLNAFKDLNEKFYSFMQKMVKEHYKTFEKGHIRDITDSLIEHCQEKQLDENANVQLSDEKIINIVLDLFGAGFDTVTTAISWSLMYLVMNPRVQRKIQEELDTVIGRSRRPRLSDRSHLPYMEAFILETFRHSSFVPFTIPHSTTRDTSLKGFYIPKGRCVFVNQWQINHDQKLWVNPSEFLPERFLTPDGAIDKVLSEKVIIFGMGKRKCIGETIARWEVFLFLAILLQRVEFSVPLGVKVDMTPIYGLTMKHACCEHFQMQLRS
notes: purchased BD Biosciences 456211; host or cells: baculovirus infected insect cells (BTI-TN-5B1-4)
B1: in data set [2] (other: CYP 1A1), the Km is 25.5 µM, the kcat is recorded as 47.3 pmol/(min · nmol CYP) and the kcat/Km was 1.9 μL/(min. · nmol CYP).

B2: CYP2C19 (Homo sapiens) (protein)
chain: MDPFVVLVLCLSCLLLLSIWRQSSGRGKLPPGPTPLPVIGNILQIDIKDVSKSLTNLSKIYGPVFTLYFGLERMVVLHGYEVVKEALIDLGEEFSGRGHFPLAERANRGFGIVFSNGKRWKEIRRFSLMTLRNFGMGKRSIEDRVQEEARCLVEELRKTKASPCDPTFILGCAPCNVICSIIFQKRFDYKDQQFLNLMEKLNENIRIVSTPWIQICNNFPTIIDYFPGTHNKLLKNLAFMESDILEKVKEHQESMDINNPRDFIDCFLIKMEKEKQNQQSEFTIENLVITAADLLGAGTETTSTTLRYALLLLLKHPEVTAKVQEEIERVIGRNRSPCMQDRGHMPYTDAVVHEVQRYIDLIPTSLPHAVTCDVKFRNYLIPKGTTILTSLTSVLHDNKEFPNPEMFDPRHFLDEGGNFKKSNYFMPFSAGKRICVGEGLARMELFLFLTFILQNFNLKSLIDPKDLDTTPVVNGFASVPPFYQLCFIPV
notes: purchased BD Biosciences 456259; host or cells: baculovirus infected insect cells (BTI-TN-5B1-4)
For B2, in data set [2] (other: CYP 2C19), the Km was 140 µM, the kcat is reported as 100 pmol/(min · nmol CYP) and the catalytic efficiency (kcat/Km) is 0.7 μL/(min. · nmol CYP).

B3: CYP2C8 (Homo sapiens) (protein)
chain: MEPFVVLVLCLSFMLLFSLWRQSCRRRKLPPGPTPLPIIGNMLQIDVKDICKSFTNFSKVYGPVFTVYFGMNPIVVFHGYEAVKEALIDNGEEFSGRGNSPISQRITKGLGIISSNGKRWKEIRRFSLTTLRNFGMGKRSIEDRVQEEAHCLVEELRKTKASPCDPTFILGCAPCNVICSVVFQKRFDYKDQNFLTLMKRFNENFRILNSPWIQVCNNFPLLIDCFPGTHNKVLKNVALTRSYIREKVKEHQASLDVNNPRDFIDCFLIKMEQEKDNQKSEFNIENLVGTVADLFVAGTETTSTTLRYGLLLLLKHPEVTAKVQEEIDHVIGRHRSPCMQDRSHMPYTDAVVHEIQRYSDLVPTGVPHAVTTDTKFRNYLIPKGTTIMALLTSVLHDDKEFPNPNIFDPGHFLDKNGNFKKSDYFMPFSAGKRICAGEGLARMELFLFLTTILQNFNLKSVDDLKNLNTTAVTKGIVSLPPSYQICFIPV
notes: purchased BD Biosciences 456252; host or cells: baculovirus infected insect cells (BTI-TN-5B1-4)
Regarding B3, in data set [2] (other: CYP 2C8), the Km was 2.9 µM, the kcat is listed as 14.3 pmol/(min · nmol CYP) and the catalytic efficiency (kcat/Km) is recorded as 5 μL/(min. · nmol CYP).

B4: CYP2J2 (Homo sapiens) (protein)
chain: MLAAMGSLAAALWAVVHPRTLLLGTVAFLLAADFLKRRRPKNYPPGPWRLPFLGNFFLVDFEQSHLEVQLFVKKYGNLFSLELGDISAVLITGLPLIKEALIHMDQNFGNRPVTPMREHIFKKNGLIMSSGQAWKEQRRFTLTALRNFGLGKKSLEERIQEEAQHLTEAIKEENGQPFDPHFKINNAVSNIICSITFGERFEYQDSWFQQLLKLLDEVTYLEASKTCQLYNVFPWIMKFLPGPHQTLFSNWKKLKLFVSHMIDKHRKDWNPAETRDFIDAYLKEMSKHTGNPTSSFHEENLICSTLDLFFAGTETTSTTLRWALLYMALYPEIQEKVQAEIDRVIGQGQQPSTAARESMPYTNAVIHEVQRMGNIIPLNVPREVTVDTTLAGYHLPKGTMILTNLTALHRDPTEWATPDTFNPDHFLENGQFKKREAFMPFSIGKRACLGEQLARTELFIFFTSLMQKFTFRPPNNEKLSLKFRMGITISPVSHRLCAVPQV
notes: purchased BD Biosciences 456264; host or cells: baculovirus infected insect cells (BTI-TN-5B1-4)
As to B4, in data set [2] (other: CYP 2J2), the Km was 374 µM, the kcat is 106.7 pmol/(min · nmol CYP) and the kcat/Km is 0.3 μL/(min. · nmol CYP).

B5: rhCYP2C9 (Homo sapiens) (protein)
chain: MDSLVVLVLCLSCLLLLSLWRQSSGRGKLPPGPTPLPVIGNILQIGIKDISKSLTNLSKVYGPVFTLYFGLKPIVVLHGYEAVKEALIDLGEEFSGRGIFPLAERANRGFGIVFSNGKKWKEIRRFSLMTLRNFGMGKRSIEDRVQEEARCLVEELRKTKASPCDPTFILGCAPCNVICSIIFHKRFDYKDQQFLNLMEKLNENIKILSSPWIQICNNFSPIIDYFPGTHNKLLKNVAFMKSYILEKVKEHQESMDMNNPQDFIDCFLMKMEKEKHNQPSEFTIESLENTAVDLFGAGTETTSTTLRYALLLLLKHPEVTAKVQEEIERVIGRNRSPCMQDRSHMPYTDAVVHEVQRYIDLLPTSLPHAVTCDIKFRNYLIPKGTTILISLTSVLHDNKEFPNPEMFDPHHFLDEGGNFKKSKYFMPFSAGKRICVGEALAGMELFLFLTSILQNFNLKSLVDPKNLDTTPVVNGFASVPPFYQLCFIPV
notes: purchased BD Biosciences 456258; host or cells: baculovirus infected insect cells (BTI-TN-5B1-4)
As for B5, in data set [3], the Km was determined as 34.5 µM, the kcat is on record as 2596 ± 233 pmol/min/nmol and the catalytic efficiency (kcat/Km) came to 1250 M⁻¹ s⁻¹.
